# Measured values from patent US7262271.
# Tested on: Antisera against the PAS1 peptides
Substance,Arg-specific proteolytic activity,Lys-specific proteolytic activity
P. gingivalis Arg-specific proteinase,Antisera against the PAS1 peptides inhibited both Arg- and Lys-specific proteolytic activity,–
P. gingivalis Lys-specific proteinase,–,Antisera against the PAS1 peptides inhibited both Arg- and Lys-specific proteolytic activity
